Our source for the Kd values is patent US20240400708A1.

Changes are numbered by the printed parent chain. Names and notes keep the numbering of the source.

What is called Kd is the free concentration of one partner at which half of the binding sites on the other are occupied at equilibrium, for simple one-to-one binding.

Sequences and labels used below:
B1: feline IgG1a wild-type (WT) (antibody, part only; not given: Variable domains, not shown: another chain or arm of the molecule)
constant: ASTTAPSVFPLAPSCGTTSGATVALACLVLGYFPEPVTVSWNSGALTSGVHTFPAVLQASGLYSLSSMVTVPSSRWLSDTFTCNVAHPPSNTKVDKTVRKTDHPPGPKPCDCPKCPPPEMLGGPSIFIFPPKPKDTLSISRTPEVTCLVVDLGPDDSDVQITWFVDNTQVYTAKTSPREEQFNSTYRVVSVLPILHQDWLKGKEFKCKVNSKSLPSPIERTISKAKGQPHEPQVYVLPPAQEELSRNKVSVTCLIKSFHPPDIAVEWEITGQPEPENNYRTTPPQLDSDGTYFVYSKLSVDRSHWQRGNTYTCSVSHEALHSHHTQKSLTQSPGK
B2: feline IgG1a S254G (antibody, part only; not given: Variable domains, not shown: another chain or arm of the molecule)
constant: B1 constant with S140G
B3: feline IgG1a S428W (antibody, part only; not given: Variable domains, not shown: another chain or arm of the molecule; small tags and cut ends)
constant: B1 constant with S316W
B4: feline IgG1a S428A (antibody, part only; not given: Variable domains, not shown: another chain or arm of the molecule)
constant: B1 constant with S316A
B5: feline IgG1a S254H (antibody, part only; not given: Variable domains, not shown: another chain or arm of the molecule)
constant: B1 constant with S140H
B6: feline IgG1a S434P (antibody, part only; not given: Variable domains, not shown: another chain or arm of the molecule)
constant: B1 constant with S322P
B7: feline IgG1a A378Y (antibody, part only; not given: Variable domains, not shown: another chain or arm of the molecule; small tags and cut ends)
constant: B1 constant with A264Y
B8: feline IgG1a S428Q (antibody, part only; not given: Variable domains, not shown: another chain or arm of the molecule; small tags and cut ends)
constant: B1 constant with S316Q
B9: feline IgG1a A378Q (antibody, part only; not given: Variable domains, not shown: another chain or arm of the molecule)
constant: B1 constant with A264Q
B10: feline IgG1a S252C (antibody, part only; not given: Variable domains, not shown: another chain or arm of the molecule; small tags and cut ends)
constant: B1 constant with S138C
B11: feline IgG1a S434L (antibody, part only; not given: Variable domains, not shown: another chain or arm of the molecule)
constant: B1 constant with S322L
B12: feline IgG1a S434N (antibody, part only; not given: Variable domains, not shown: another chain or arm of the molecule)
constant: B1 constant with S322N
B13: feline IgG1a A378S (antibody, part only; not given: Variable domains, not shown: another chain or arm of the molecule)
constant: B1 constant with A264S
B14: feline IgG1a S252A (antibody, part only; not given: Variable domains, not shown: another chain or arm of the molecule; small tags and cut ends)
constant: B1 constant with S138A
B15: feline IgG1a S252Q (antibody, part only; not given: Variable domains, not shown: another chain or arm of the molecule)
constant: B1 constant with S138Q
B16: feline IgG1a S428N (antibody, part only; not given: Variable domains, not shown: another chain or arm of the molecule; small tags and cut ends)
constant: B1 constant with S316N
B17: feline IgG1a S428K (antibody, part only; not given: Variable domains, not shown: another chain or arm of the molecule)
constant: B1 constant with S316K
B18: feline IgG1a S252T (antibody, part only; not given: Variable domains, not shown: another chain or arm of the molecule)
constant: B1 constant with S138T
B19: feline IgG1a S428D (antibody, part only; not given: Variable domains, not shown: another chain or arm of the molecule)
constant: B1 constant with S316D
B20: feline IgG1a S428G (antibody, part only; not given: Variable domains, not shown: another chain or arm of the molecule)
constant: B1 constant with S316G
B21: feline IgG1a S254F (antibody, part only; not given: Variable domains, not shown: another chain or arm of the molecule)
constant: B1 constant with S140F
B22: feline IgG1a S252W (antibody, part only; not given: Variable domains, not shown: another chain or arm of the molecule)
constant: B1 constant with S138W
B23: feline IgG1a S254E (antibody, part only; not given: Variable domains, not shown: another chain or arm of the molecule)
constant: B1 constant with S140E
B24: feline IgG1a S252D (antibody, part only; not given: Variable domains, not shown: another chain or arm of the molecule; small tags and cut ends)
constant: B1 constant with S138D
B25: feline IgG1a S252M (antibody, part only; not given: Variable domains, not shown: another chain or arm of the molecule)
constant: B1 constant with S138M
B26: feline IgG1a A378R (antibody, part only; not given: Variable domains, not shown: another chain or arm of the molecule)
constant: B1 constant with A264R
B27: feline IgG1a S254A (antibody, part only; not given: Variable domains, not shown: another chain or arm of the molecule)
constant: B1 constant with S140A
B28: feline IgG1a S428H (antibody, part only; not given: Variable domains, not shown: another chain or arm of the molecule)
constant: B1 constant with S316H
B29: feline IgG1a S252V (antibody, part only; not given: Variable domains, not shown: another chain or arm of the molecule)
constant: B1 constant with S138V
B30: feline IgG1a S434K (antibody, part only; not given: variable domains and light chain, not shown: another chain or arm of the molecule)
constant: B1 constant with S322K
B31: feline IgG1a S428E (antibody, part only; not given: Variable domains, not shown: another chain or arm of the molecule)
constant: B1 constant with S316E
B32: feline IgG1a S254D (antibody, part only; not given: Variable domains, not shown: another chain or arm of the molecule)
constant: B1 constant with S140D
B33: feline IgG1a S428R (antibody, part only; not given: Variable domains, not shown: another chain or arm of the molecule; small tags and cut ends)
constant: B1 constant with S316R
B34: feline IgG1a S428P (antibody, part only; not given: Variable domains, not shown: another chain or arm of the molecule; small tags and cut ends)
constant: B1 constant with S316P
B35: feline IgG1a S254K (antibody, part only; not given: Variable domains, not shown: another chain or arm of the molecule)
constant: B1 constant with S140K
B36: feline IgG1a A378W (antibody, part only; not given: Variable domains, not shown: another chain or arm of the molecule; small tags and cut ends)
constant: B1 constant with A264W
B37: feline IgG1a S434M (antibody, part only; not given: Variable domains, not shown: another chain or arm of the molecule)
constant: B1 constant with S322M
B38: feline IgG1a A378V (antibody, part only; not given: Variable domains, not shown: another chain or arm of the molecule; small tags and cut ends)
constant: B1 constant with A264V
B39: feline IgG1a S254L (antibody, part only; not given: variable domains and light chain, not shown: another chain or arm of the molecule)
constant: B1 constant with S140L
B40: feline IgG1a S428L (antibody, part only; not given: Variable domains, not shown: another chain or arm of the molecule)
constant: B1 constant with S316L
B41: feline IgG1a S428C (antibody, part only; not given: Variable domains, not shown: another chain or arm of the molecule)
constant: B1 constant with S316C
B42: feline IgG1a S252P (antibody, part only; not given: Variable domains, not shown: another chain or arm of the molecule)
constant: B1 constant with S138P
B43: feline IgG1a S254M (antibody, part only; not given: Variable domains, not shown: another chain or arm of the molecule)
constant: B1 constant with S140M
B44: feline IgG1a S434H (antibody, part only; not given: variable domains and light chain, not shown: another chain or arm of the molecule; small tags and cut ends)
constant: B1 constant with S322H
B45: feline IgG1a S428F (antibody, part only; not given: Variable domains, not shown: another chain or arm of the molecule)
constant: B1 constant with S316F
B46: feline IgG1a S252L (antibody, part only; not given: Variable domains, not shown: another chain or arm of the molecule)
constant: B1 constant with S138L
B47: feline IgG1a A378T (antibody, part only; not given: Variable domains, not shown: another chain or arm of the molecule; small tags and cut ends)
constant: B1 constant with A264T
B48: feline IgG1a S252E (antibody, part only; not given: variable domains, not shown: another chain or arm of the molecule)
constant: B1 constant with S138E
B49: feline IgG1a S252G (antibody, part only; not given: Variable domains, not shown: another chain or arm of the molecule)
constant: B1 constant with S138G
B50: feline IgG1a S252N (antibody, part only; not given: variable domains, not shown: another chain or arm of the molecule)
constant: B1 constant with S138N
B51: feline IgG1a S434I (antibody, part only; not given: Variable domains, not shown: another chain or arm of the molecule)
constant: B1 constant with S322I
B52: feline IgG1a S428T (antibody, part only; not given: Variable domains, not shown: another chain or arm of the molecule; small tags and cut ends)
constant: B1 constant with S316T
B53: feline IgG1a S252I (antibody, part only; not given: Variable domains, not shown: another chain or arm of the molecule)
constant: B1 constant with S138I
B54: feline IgG1a S428I (antibody, part only; not given: Variable domains, not shown: another chain or arm of the molecule)
constant: B1 constant with S316I
B55: feline IgG1a S252K (antibody, part only; not given: variable domains and light chain, not shown: another chain or arm of the molecule)
constant: B1 constant with S138K
B56: feline IgG1a S428V (antibody, part only; not given: Variable domains, not shown: another chain or arm of the molecule; small tags and cut ends)
constant: B1 constant with S316V

The target of this assay is feline FcRn complex (FcRn-α subunit and β-microglobulin), biotin labeled (feline). Briefly: SPR, pH 6.
feline IgG1a S434Q (antibody) had a Kd of 4.8 nM.

The molecule B1 returned a dissociation constant (Kd) of 20.2 nM.

Turning to B2, the Kd came out at 64.2 nM.

Regarding B3, the dissociation constant (Kd) was 36.4 nM. This Kd lies about 1.8-fold lower than the previous one.

Take B4: the Kd came to 119 nM.

Molecule B5 returned a Kd of 1850 nM.

As to B6, the dissociation constant Kd stood at 5.64 nM.

On to B7, for which the Kd was found to be 69.6 nM.

B8: the Kd turned out to be 38.3 nM.

B9: the equilibrium dissociation constant (Kd) was 49 nM.

B10: the Kd worked out at 922 nM.

The molecule B11 showed a dissociation constant (Kd) of 8.67 nM.

As to B12, the Kd came to 6.94 nM.

In turn, B13 displayed a dissociation constant (Kd) of 48.3 nM.

Take B14: the Kd worked out at 27.1 nM. This Kd lies about 1.8-fold lower than the previous one.

B15 came in with a dissociation constant (Kd) of 192 nM.

As to B16, the Kd came to 42.9 nM.

Regarding B17, the Kd turned out to be 70.2 nM.

As to B18, the Kd amounted to 1190 nM. This Kd lies about 17-fold higher than the previous one.

B19: the dissociation constant Kd came to 362 nM.

B20 displayed a dissociation constant (Kd) of 46.3 nM.

Molecule B21 had a dissociation constant (Kd) of 568 nM.

Molecule B22 registered a Kd of 80.3 nM.

B23 returned a Kd of 0.711 nM. This Kd lies about 110-fold lower than the previous one.

B24: the dissociation constant (Kd) was 93.5 nM. This Kd lies about 130-fold higher than the previous one.

Molecule B25 registered a Kd of 55 nM.

For B26, the equilibrium dissociation constant (Kd) is 36.2 nM.

For the molecule B27, the Kd came to 53 nM.

On to B28, for which the Kd was 41.6 nM.

For B29, the dissociation constant (Kd) came to 4470 nM. This Kd is about 110-fold higher than that of the molecule before.

For B30, the Kd worked out at 6.76 nM. This Kd lies about 660-fold lower than the previous one.

For B31, the dissociation constant (Kd) was 184 nM. This Kd lies about 27-fold higher than the previous one.

Consider B32, for which the Kd worked out at 474 nM.

Molecule B33 had a Kd of 68.6 nM. This Kd lies about 6.9-fold lower than the previous one.

In the case of B34, the Kd was found to be 18 nM.

For B35, the Kd was 46.5 nM. This Kd is about 2.6-fold higher than that of the molecule before.

B36: the Kd amounted to 91 nM.

B37 registered a Kd of 2.8 nM.

B38: the dissociation constant Kd amounted to 42.9 nM.

In turn, B39 came in with a Kd of 42.7 nM.

Regarding B40, the dissociation constant Kd worked out at 81.5 nM.

B41 registered a Kd of 61.4 nM.

In the case of B42, the Kd stood at 7030 nM.

With B43, the Kd is 101 nM. This Kd lies about 70-fold lower than the previous one.

As for B44, the Kd is 1.02 nM.

On to B45, for which the dissociation constant (Kd) came to 83.9 nM.

With B46, the equilibrium dissociation constant (Kd) amounted to 70.7 nM.

With B47, the dissociation constant (Kd) amounted to 59.2 nM.

In turn, B48 came in with a dissociation constant (Kd) of 163 nM.

B49 returned a dissociation constant Kd of 49.8 nM.

Regarding B50, the equilibrium dissociation constant (Kd) was 400 nM.

On to B51, for which the Kd stood at 14.4 nM.

Take B52: the Kd stood at 27.3 nM.

B53 showed an equilibrium dissociation constant (Kd) of 156 nM.

For the molecule B54, the Kd stood at 40.8 nM.

Molecule B55 yielded a Kd of 53.7 nM.

Turning to B56, the Kd stood at 19.2 nM.
